Source: patent US11464853B2, “Amino acid and peptide conjugates and conjugation process” (Auckland UniServices Limited, priority 2016, dated 2022)
“Also recorded” adds a separate entry of the source. Where no end group is shown, it is not given here. [ ]: non-standard residue; d: D form.

What was measured:
Assay type in all cases: cell-based
[1] = molecular target: T1, murine TLR2 (HEK-Blue™-mTLR2 cells) (Mus musculus, UniProt Q9QUN7); assay: TLR2 agonism in HEK-Blue-mTLR2 cells (SEAP reporter); details: for SEAP production / TLR2 agonism in HEK-Blue™-mTLR2: Example 2, FIG. 4A-4C, 10-12 h incubation, absorbance 635 nm; for SEAP production / TLR2 agonism in HEK-Blue™-mTLR2 / TLR2 agonism for mTLR2: result in words; for TLR2 agonism for mTLR2: Example 8, FIG. 6A, dilution series 10^−6 M to 10^−11 M
T1 construct: host or cells: HEK-Blue-mTLR2 (HEK cells co-transfected with murine TLR2 and the SEAP reporter)
T1 sequence (Q9QUN7 25-784): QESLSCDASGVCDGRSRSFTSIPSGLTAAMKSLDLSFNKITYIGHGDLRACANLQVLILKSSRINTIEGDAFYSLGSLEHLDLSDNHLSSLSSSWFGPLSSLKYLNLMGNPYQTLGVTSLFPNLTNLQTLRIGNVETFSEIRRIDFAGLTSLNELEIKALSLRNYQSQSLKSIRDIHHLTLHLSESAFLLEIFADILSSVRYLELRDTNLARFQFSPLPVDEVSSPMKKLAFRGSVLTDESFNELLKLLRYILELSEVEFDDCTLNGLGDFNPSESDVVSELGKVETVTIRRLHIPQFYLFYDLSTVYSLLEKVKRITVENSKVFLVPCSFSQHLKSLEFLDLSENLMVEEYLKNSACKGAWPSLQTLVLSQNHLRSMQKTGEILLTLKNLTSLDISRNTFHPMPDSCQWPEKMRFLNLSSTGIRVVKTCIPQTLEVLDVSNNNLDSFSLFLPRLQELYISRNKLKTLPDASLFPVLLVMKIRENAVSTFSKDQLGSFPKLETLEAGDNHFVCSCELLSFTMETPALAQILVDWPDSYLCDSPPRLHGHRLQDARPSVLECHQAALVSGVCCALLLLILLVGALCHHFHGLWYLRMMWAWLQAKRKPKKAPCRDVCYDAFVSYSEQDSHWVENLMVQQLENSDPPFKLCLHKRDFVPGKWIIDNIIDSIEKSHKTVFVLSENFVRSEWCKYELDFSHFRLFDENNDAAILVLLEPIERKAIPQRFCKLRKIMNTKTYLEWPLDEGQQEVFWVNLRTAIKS
Protocol: (§1) HEK-Blue™ Detection medium, HEK-Blue™-hTLR2 and HEK-Blue™-mTLR2 were purchased from Invivogen. These HEK-Blue cells were produced by co-transfection of both reporter gene SEAP (secreted embryonic alkaline phosphatase) and either human or murine TLR2, respectively. The SEAP reporter gene is under the control of the IFN-B minimal promoter fused to five AP-1 and five NFkB binding sites. Cells were cultured according to manufacturer's instructions.
(§2) On the day of the assay, TLR agonists 510, 520, 530, 540, 550 or PBS (negative control) were added at the indicated concentrations in 20 μl volume of endotoxin free water in a 96-well plate. HEK-Blue™-hTLR2 or […] were resuspended at ˜2.78×10^5 cells/ml in HEK-Blue™ Detection medium and 180 μl of the cell suspension added to each well (˜5×10^4 cells). Cells were incubated for 10-12 h at 37° C. in 5% CO2. SEAP expression was quantified using an EnSpire plate reader (PerkinElmer) at […]. Data presented as mean+/−SD ABS or mABS (635 nm) values for triplicate wells following background subtraction.
(§3) The TLR2 agonism of the agonists in Table 4 were investigated in HEK-Blue™-mTLR2 (FIG. 6A) and HEK-Blue™-hTLR2 (FIG. 6B) cells by following a procedure analogous to that described in section 2.1 of Example 2 across a 6-log10 dilution series (10^−6 M to 10^−11 M). (R/S)-Pam-1-Cys-NH2 was tested only at 10^−6 and 10^−9 M. Data presented as mean+/−SD absorbance (635 nm) values for triplicate wells following background subtraction, with dotted lines representing absorbance in wells treated with media only.

[2] = molecular target: T2, human TLR2 (HEK-Blue™-hTLR2 cells) (Homo sapiens, UniProt O60603); assay: TLR2 agonism in HEK-Blue-hTLR2 cells (SEAP reporter); details: for SEAP production / TLR2 agonism in HEK-Blue™-hTLR2: Example 2, FIG. 4A-4C, 10-12 h incubation, absorbance 635 nm
T2 construct: host or cells: HEK-Blue-hTLR2 (HEK cells co-transfected with human TLR2 and the SEAP reporter)
T2 sequence (O60603 21-784): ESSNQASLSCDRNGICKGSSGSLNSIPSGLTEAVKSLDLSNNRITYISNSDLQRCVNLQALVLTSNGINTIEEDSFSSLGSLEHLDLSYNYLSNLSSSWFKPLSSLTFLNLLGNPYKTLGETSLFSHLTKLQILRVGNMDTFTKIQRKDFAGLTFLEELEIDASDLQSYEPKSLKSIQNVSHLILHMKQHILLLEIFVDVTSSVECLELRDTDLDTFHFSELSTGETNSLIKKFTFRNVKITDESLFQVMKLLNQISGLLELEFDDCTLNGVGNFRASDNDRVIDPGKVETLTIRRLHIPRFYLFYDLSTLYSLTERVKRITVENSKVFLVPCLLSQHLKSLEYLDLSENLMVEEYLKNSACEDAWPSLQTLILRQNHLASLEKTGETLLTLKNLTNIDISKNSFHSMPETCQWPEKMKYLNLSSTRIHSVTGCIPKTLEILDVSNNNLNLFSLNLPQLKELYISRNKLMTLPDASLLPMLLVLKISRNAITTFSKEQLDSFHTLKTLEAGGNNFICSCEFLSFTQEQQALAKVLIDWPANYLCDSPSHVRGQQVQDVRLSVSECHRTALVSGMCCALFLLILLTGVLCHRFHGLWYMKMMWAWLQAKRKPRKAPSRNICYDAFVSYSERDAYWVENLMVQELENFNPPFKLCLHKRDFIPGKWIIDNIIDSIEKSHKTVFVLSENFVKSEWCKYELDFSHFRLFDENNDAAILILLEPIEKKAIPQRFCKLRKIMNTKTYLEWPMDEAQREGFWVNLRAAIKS
Protocol: as §1, §2, §3

[3] = system: CD8+ T cell clones with TLR2+ HLA-A2+ lymphoblastoid B-cell lines (LCL) as antigen-presenting cells; assay: Peptide processing and presentation to CD8+ T-cell clones by LCL (CD137 expression, flow cytometry); details: result in words
Protocol: Epstein-Barr Virus-transformed TLR2+ HLA-A2+ lymphoblastoid B-cell lines (LCL) were used as antigen-presenting cells in all peptide processing and presentation assays. LCL were incubated for 16 h in RF10+peptide/construct as indicated at desired concentrations. Untreated LCL were incubated in RF10 only. LCL/construct incubation was performed in 96 well plates (U-bottom, BD Biosciences) or in 48wp (flat bottom, BD Biosciences) depending of the nature of the assay and the numbers of LCL required per treatment. Following incubation, LCL were thoroughly washed with RPMI 1640 to remove unbound construct/peptide.
To enable flow cytometric detection, CD8+ T cell clones were pre-stained with 0.5 μM CellTrace™ Violet (“CTV”) (Life Technologies™) following manufacturer's protocols prior to seeding into APC wells. Loaded, washed LCL and CTV-stained T cell clones were seeded in 96 well plate wells (U-bottom) at a ratio of 4:1 (LCL: T cell) in duplicate (typical numbers of cells used were 1.25×10^4 cells/ml T cells and 5×10^4 cells/ml APC). Following seeding, plates were gently centrifuged (≤300×g, 3 minutes) to allow immediate interaction, and incubated for 26 hours in a standard cell culture incubator.
To detect T cell activation, samples were stained with anti-CD8:AlexaFluor700 and anti-CD137:PE antibodies (both Biolegend). […]

Substance	SEAP production / TLR2 agonism in HEK-Blue™-mTLR2 [1]	SEAP production / TLR2 agonism in HEK-Blue™-hTLR2 ([2]; result in words)	further results
homoPam2Cys(NH2)-SKKKK: Lipopeptide TLR2 agonist of the invention: Homo-Pam2Cys(NH2) lipid component with SKKKK linker, no epitope peptide ([homoPam2Cys(NH2)]SKKKK)	equivalent SEAP production to Pam3Cys-SKKKK; also recorded: demonstrably more potent TLR2 agonists than Pam1CYs-SKKKK; also recorded: active in both HEK-Blue™-mTLR2 and -hTLR2 to sub-nM concentrations	comparable production in HEK-Blue™-hTLR2; also recorded: demonstrably more potent TLR2 agonists than Pam1CYs-SKKKK; also recorded: active in both HEK-Blue™-mTLR2 and -hTLR2 to sub-nM concentrations	–
Pam1Cys-SKKKK-NH2: TLR agonist of Table 4 ([Pam1Cys]SKKKK-NH2) [reference compound]	–	–	TLR2 agonism for mTLR2 [1]: no agonism at any concentration for mTLR2; TLR2 agonism for hTLR2 ([2]; Example 8, FIG. 6B, dilution series 10^−6 M to 10^−11 M, result in words): agonism for hTLR2 at 10^−6 M but not 10^−9 M
552: Homo-Pam2Cys(NHAc)-SKKKK conjugated to peptide VPGVLLKEFTVSGNILTIRLTAADHR (homo-Pam2Cys(NHAc)-SKKKK conjugate) [compound 552]	–	–	T-cell clone activation (live clonal cells positive for CD137) ([3]; VPG-bearing constructs and VPG long peptide, FIG. 4E, epitope EFTVSGNIL): superior T-cell clone activation to VPG-bearing-Pam1Cys-SKKKK (512); also recorded: superior to VPG peptide alone (500)
(R)-Pam3Cys: enantiopure epimeric TLR agonist of Table 4 (CSKKKK) [reference compound]	–	–	NFκB production maintained at lower concentration than paired (S)-version ([1]; mTLR2, (R)- vs (S)-epimer): ≥ 10 fold; NFκB production maintained at lower concentration than paired (S)-version ([2]; hTLR2, (R)- vs (S)-epimer): ≥ 10 fold
(R)-Pam2Cys-SKKKK-NH2: enantiopure epimeric TLR agonist of Table 4 ([(R)‑Pam2Cys]SKKKK-NH2; also: (R) epimer, enantiopure) [reference compound]	–	–	TLR2 agonism for mTLR2 [1]: increase in NKκB production at 10^−10 and 10^−11 M only
Pam2Cys-SKKKK: known TLR2 agonist, prepared in-house; lipid/linker component Pam2Cys-SKKKK without peptide ([Pam2Cys]SKKKK) [reference compound]	most potent agonist tested	most potent agonist tested	–
551: Homo-Pam2Cys(NHAc)-SKKKK conjugated to peptide NLVPMVATVK(Ac) ({homoPam2Cys(NHAc)}-SKKKKNLVPMVATVK(Ac); also: conjugated to lipopeptide, linkage not given here) [compound 551]	did not result in any loss of agonism, and homoPam2Cys(NHAc)-SKKKK-NLVPMVATVK(Ac) remained a more potent agonist than Pam3Cys-SKKKK, particularly at nM concentrations	did not result in any loss of agonism, and homoPam2Cys(NHAc)-SKKKK-NLVPMVATVK(Ac) remained a more potent agonist than Pam3Cys-SKKKK, particularly at nM concentrations	T-cell clone activation (live clonal cells positive for CD137) ([3]; NLV-bearing constructs, FIG. 4D, LCL loaded 16 h, co-culture 26 h): comparable T-cell clone activation to NLV-bearing-Pam2Cys-SKKKK (521), and superior T-cell clone activation to NLV-bearing-Pam1Cys-SKKKK (511)
homoPam2Cys(NHAc)-SKKKK: Lipopeptide TLR2 agonist of the invention: Homo-Pam2Cys(NHAc) lipid component with SKKKK linker, no epitope peptide ([homoPam2Cys(NHAc)]SKKKK)	equivalent SEAP production to the most potent agonist tested (Pam2Cys-SKKKK) at ≥1 nM and comparable production at sub-nM concentrations; also recorded: demonstrably more potent agonist than Pam3Cys-SKKKK or homoPam2Cys(NH2)-SKKKK; also recorded: demonstrably more potent TLR2 agonists than Pam1CYs-SKKKK; also recorded: active in both HEK-Blue™-mTLR2 and -hTLR2 to sub-nM concentrations	equivalent SEAP production to the most potent agonist tested (Pam2Cys-SKKKK) at ≥1 nM and comparable production at sub-nM concentrations; also recorded: demonstrably more potent agonist than Pam3Cys-SKKKK or homoPam2Cys(NH2)-SKKKK; also recorded: demonstrably more potent TLR2 agonists than Pam1CYs-SKKKK; also recorded: active in both HEK-Blue™-mTLR2 and -hTLR2 to sub-nM concentrations	–
521: Pam2Cys-SKKKK conjugated to peptide NLVPMVATVK(Ac) (Pam2Cys-SKKKKNLVPMVATVK(Ac)) [compound 521, reference compound]	relative loss of agonism when compared to unconjugated Pam3Cys-SKKKK	relative loss of agonism when compared to unconjugated Pam3Cys-SKKKK	–
Pam1Cys-SKKKK: known TLR2 agonist, prepared in-house; lipid/linker component Pam1Cys-SKKKK without peptide ([Pam1Cys]SKKKK) [reference compound]	not active in HEK-Blue™-mTLR2 at sub-μM concentrations	–	–
